Measurements from patent publication US9695228B2, “EGFR and c-Met fibronectin type III domain binding molecules” (Janssen Biotech, Inc., priority 2012, dated 2017).
Where two headings read alike, the source gives them in different places.

Experiments:
[1] = test system: H292-HGF human lung cancer xenograft; assay type: in vivo; conditions: for Tumor Size at day 23: day 23 after tumor inoculation, doses as printed with treatment
Procedure: The H292-HGF cells were maintained in vitro in RPMI1640 medium supplemented with fetal bovine serum (10% v/v), and L-glutamine (2 mM) at 37° C. in an atmosphere of 5% CO2 in air. The cells were routinely subcultured twice weekly by trypsin-EDTA treatment. The cells growing in an exponential growth phase were harvested and counted for tumor inoculation.
Each mouse was inoculated subcutaneously at the right flank region with H292-HGF tumor cells (2×10^6) in 0.1 ml of PBS with cultrex (1:1) for tumor development. The treatments were started when the mean tumor size reached 139 mm^3. […] The date of tumor cell inoculation was denoted as day 0.
Before commencement of treatment, all animals were weighed and the tumor volumes were measured. Since the tumor volume can affect the effectiveness of any given treatment, mice were assigned into groups using randomized block design based upon their tumor volumes. […] The randomized block design was used to assign experimental animals to groups. First, the experimental animals were divided into homogeneous blocks according to their initial tumor volume. Secondly, within each block, randomization of experimental animals to treatments was conducted.
At the time of routine monitoring, the animals were checked for any effects of tumor growth and treatments on normal behavior, such as mobility, visual estimation of food and water consumption, body weight gain/loss (body weights were measured twice weekly), eye/hair matting and any other abnormal effect.
The endpoint was whether tumor growth can be delayed or tumor bearing mice can be cured. Tumor size was measured twice weekly in two dimensions using a caliper, and the volume was expressed in mm^3 using the formula: V=0.5 a×b^2 where a and b are the long and short diameters of the tumor, respectively. The tumor size was then used for calculations of both T-C and T/C values. T-C was calculated with T as the time (in days) required for the mean tumor size of the treatment group to reach 1000 mm^3, and C was the time (in days) for the mean tumor size of the control group to reach the same size. The T/C value (in percent) was an indication of antitumor efficacy; T and C were the mean tumor volume of the treated and control groups, respectively, on a given day. Complete tumor regression (CR) is defined as tumors that are reduced to below the limit of palpation (62.5 mm^3). Partial tumor regression (PR) is defined as tumors that are reduced from initial tumor volume. A minimum duration of CR or PR in 3 or more successive tumor measurements is required for a CP or PR to be considered durable.
Animals for which the body weight loss exceeded 20%, or for which the mean tumor size of the group exceeds 2000 mm^3 were euthanized. The study was terminated after two weeks of observation after the final dose.
Statistical analyses of difference in tumor volume among the groups were evaluated using a one-way ANOVA followed by individual comparisons using Games-Howell (equal variance not assumed). All data were analyzed using SPSS 18.0. p<0.05 was considered to be statistically significant.

c-Met-Fc fusion protein = biological target: T1, c-Met-Fc fusion protein (Homo sapiens, UniProt P08581); assay: c-Met-Fc affinity by surface plasmon resonance (ProteOn); assay type: binding; conditions: for binding to c-Met (in words): SPR; for Kd / ka / kd: serine mutants of A3 in the context of ECB15, SPR
T1 construct: recombinant EGFR and/or c-Met extracellular domain was further analyzed by surface Plasmon resonance

[2] = Differential scanning calorimetry in PBS (thermal stability); assay type: physicochemical; conditions: DSC in PBS, c-Met-binding FN3 domains

T1 sequence (P08581 25-932 limits assumed): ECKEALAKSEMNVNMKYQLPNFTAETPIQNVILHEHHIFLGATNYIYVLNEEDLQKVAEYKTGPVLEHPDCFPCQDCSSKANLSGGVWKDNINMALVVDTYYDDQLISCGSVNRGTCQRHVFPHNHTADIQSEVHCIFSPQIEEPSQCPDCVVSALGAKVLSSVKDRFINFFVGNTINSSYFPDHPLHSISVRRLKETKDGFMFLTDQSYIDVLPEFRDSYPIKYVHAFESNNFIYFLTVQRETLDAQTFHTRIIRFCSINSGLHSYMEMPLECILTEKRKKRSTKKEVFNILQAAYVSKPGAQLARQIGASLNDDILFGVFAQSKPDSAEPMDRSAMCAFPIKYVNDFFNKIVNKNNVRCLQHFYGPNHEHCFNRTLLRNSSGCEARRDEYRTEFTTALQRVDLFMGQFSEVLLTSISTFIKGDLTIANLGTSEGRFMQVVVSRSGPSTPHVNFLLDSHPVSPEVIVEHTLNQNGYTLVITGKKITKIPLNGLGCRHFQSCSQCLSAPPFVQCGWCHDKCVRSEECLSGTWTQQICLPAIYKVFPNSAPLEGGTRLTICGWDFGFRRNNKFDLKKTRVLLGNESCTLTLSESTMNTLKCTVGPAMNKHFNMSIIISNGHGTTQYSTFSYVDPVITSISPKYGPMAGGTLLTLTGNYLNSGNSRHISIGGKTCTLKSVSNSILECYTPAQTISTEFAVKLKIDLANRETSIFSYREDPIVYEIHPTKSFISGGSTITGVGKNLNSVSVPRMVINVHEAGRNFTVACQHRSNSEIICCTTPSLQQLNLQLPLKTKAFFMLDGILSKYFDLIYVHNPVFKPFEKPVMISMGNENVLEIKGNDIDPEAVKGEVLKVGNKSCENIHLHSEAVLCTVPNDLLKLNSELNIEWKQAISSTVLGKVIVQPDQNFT

| Molecule | ka (c-Met-Fc fusion protein) [M⁻¹ s⁻¹] | kd (c-Met-Fc fusion protein) [s⁻¹] | Thermal Stability (Tm) [2] [C.] | other results |
| --- | --- | --- | --- | --- |
| C[C@@H](Oc1cc(-c2cnn(C3CCNCC3)c2)cnc1N)c1c(Cl)ccc(F)c1Cl [Crizotinib, crizotinib, reference compound] |  |  |  | T-C at 1000 mm^3 (tumor growth delay) ([1]; compared with the vehicle group): -1 days; Tumor volume ([1]; day 7 (start of treatment), mean ± SEM, doses as in column head): 140 ± 9 mm^3; Tumor volume ([1]; day 9, mean ± SEM): 217 ± 20 mm^3; Tumor volume ([1]; day 13, mean ± SEM): 547 ± 43 mm^3; Tumor volume ([1]; day 16, mean ± SEM): 914 ± 92 mm^3; Tumor volume ([1]; day 20, mean ± SEM): 1438 ± 239 mm^3; T/C ([1]; day 23): 120%; Tumor volume ([1]; day 23, mean ± SEM): 2102 ± 298 mm^3; Tumor Size at day 23 [1]: 2102 ± 298 mm^3; Tumor Size at day 23 ([1]; listed as crizotinib): 2,102 mm^3; antitumor activity (in words) ([1]; doses as in Table 14): no antitumor activity; tolerability / body weight loss (in words) ([1]; doses as in Table 14): More severe body weight loss |
| C#Cc1cccc(Nc2ncnc3cc(OCCOC)c(OCCOC)cc23)c1 [Erlotinib, erlotinib, reference compound] |  |  |  | tolerability / body weight loss (in words) ([1]; doses as in Table 14): More severe body weight loss |
| A3 M72S: serine mutant of c-Met domain A3 in the context of ECB15, SEQ ID NO: 220 (protein, c-Met binding FN3 domain) LPAPKNLVVSRVTEDSARLSWTAPDAAFDSFWIRYFEFLGSGEAIVLTVPGSERSYDLTGLKPGTEYVVNISGVKGGKISPPLSAIFTT |  |  |  | binding to c-Met (in words) (c-Met-Fc fusion protein): No binding was measurable; Kd (c-Met-Fc fusion protein): > 1 µM |
| A3 179S: serine mutant of c-Met domain A3 in the context of ECB15, SEQ ID NO: 223 (protein, c-Met binding FN3 domain) LPAPKNLVVSRVTEDSARLSWTAPDAAFDSFWIRYFEFLGSGEAIVLTVPGSERSYDLTGLKPGTEYVVNIMGVKGGKSSPPLSAIFTT |  |  |  | binding to c-Met (in words) (c-Met-Fc fusion protein): No binding was measurable; Kd (c-Met-Fc fusion protein): > 1 µM |
| A3 L39S: serine mutant of c-Met domain A3 in the context of ECB15, SEQ ID NO: 214 (protein, c-Met binding FN3 domain) LPAPKNLVVSRVTEDSARLSWTAPDAAFDSFWIRYFEFSGSGEAIVLTVPGSERSYDLTGLKPGTEYVVNIMGVKGGKISPPLSAIFTT | 475000 | 0.00127 |  |  |
| P114AR7P93-G8: c-Met-binding FN3 domain, SEQ ID NO: 39 (protein, c-Met binding FN3 domain) LPAPKNLVVSRVTEDSARLSWTAPDAAFDSFWIRYFEFLGSGEAIVLTVPGSERSYDLTDLKPGTEYGVTINGVKGGRVSTPLSAIFTT |  |  | 76.8 |  |
| P114AR7P94-E5: c-Met-binding FN3 domain, SEQ ID NO: 42 (protein, c-Met binding FN3 domain) LPAPKNLVVSRVTEDSARLSWTAPDAAFDSFWIRYFEFLGSGEAIVLTVPGSERSYDLTGLKPGTEYAVNIMGVKGGRVSVPLSAIFTT |  |  | 80 |  |
| P114AR7P95-G7: c-Met-binding FN3 domain, SEQ ID NO: 48 (protein, c-Met binding FN3 domain) LPAPKNLVVSRVTEDSARLSWTAPDAAFDSFWIRYFELLSTGEAIVLTVPGSERSYDLTGLKPGTEYVVNIMGVKGGSISPPLSAIFTT |  |  | 87.2 |  |
| P114AR7P95-D4: c-Met-binding FN3 domain, SEQ ID NO: 45 (protein, c-Met binding FN3 domain) LPAPKNLVVSRVTEDSARLSWTAPDAAFDSFWIRYFEFLGSGEAIVLTVPGSERSYDLTGLKPGTEYVVQILGVKGGYISIPLSAIFTT |  |  | 85.3 |  |
| P114AR7P93-H9: c-Met-binding FN3 domain, SEQ ID NO: 40 (protein, c-Met binding FN3 domain) LPAPKNLVVSRVTEDSARLSWTAPDAAFDSFWIRYFEFLGSGEAIVLTVPGSERSYDLTGLKPGTEYVVQIIGVKGGHISLPLSAIFTT |  |  | 88.2 |  |
| P114AR7P94-A3: c-Met-binding FN3 domain, SEQ ID NO: 41 (protein, c-Met binding FN3 domain) LPAPKNLVVSRVTEDSARLSWTAPDAAFDSFWIRYFEFLGSGEAIVLTVPGSERSYDLTGLKPGTEYVVNIMGVKGGKISPPLSAIFTT |  |  | 86.2 |  |
| P114AR7P92-H5: c-Met-binding FN3 domain, SEQ ID NO: 37 (protein, c-Met binding FN3 domain) LPAPKNLVVSRVTEDSARLSWTAPDAAFDSFWIRYLEFLLGGEAIVLTVPGSERSYDLTGLKPGTEYVVQIMGVKGGTVSPPLSAIFTT |  |  | 87 |  |
| A3 F38S: serine mutant of c-Met domain A3 in the context of ECB15, SEQ ID NO: 222 (protein, c-Met binding FN3 domain) LPAPKNLVVSRVTEDSARLSWTAPDAAFDSFWIRYFESLGSGEAIVLTVPGSERSYDLTGLKPGTEYVVNIMGVKGGKISPPLSAIFTT | 45100 | 0.0323 |  |  |
| A3 R34S: serine mutant of c-Met domain A3 in the context of ECB15, SEQ ID NO: 221 (protein, c-Met binding FN3 domain) LPAPKNLVVSRVTEDSARLSWTAPDAAFDSFWISYFEFLGSGEAIVLTVPGSERSYDLTGLKPGTEYVVNIMGVKGGKISPPLSAIFTT |  |  |  | binding to c-Met (in words) (c-Met-Fc fusion protein): No binding was measurable; Kd (c-Met-Fc fusion protein): > 1 µM |
| P114AR7P95-F10: c-Met-binding FN3 domain, SEQ ID NO: 47 (protein, c-Met binding FN3 domain) LPAPKNLVVSRVTEDSARLSWTAPDAAFDSFWIRYFEFTTAGEAIVLTVPGSERSYDLTGLKPGTEYVVNIMGVKGGSISPPLSAIFTT |  |  | 85.2 |  |
| P114AR7P92-G8: c-Met-binding FN3 domain, SEQ ID NO: 36 (protein, c-Met binding FN3 domain) LPAPKNLVVSRVTEDSARLSWTAPDAAFDSFVIRYFEFLGSGEAIVLTVPGSERSYDLTGLKPGTEYVVQILGVKGGYISIPLSAIFTT |  |  | 90.9 |  |

Continued, in another order:

| ka (c-Met-Fc fusion protein) [M⁻¹ s⁻¹] | kd (c-Met-Fc fusion protein) [s⁻¹] | Molecule | Thermal Stability (Tm) [2] [C.] | other results |
| --- | --- | --- | --- | --- |
| 185000 | 0.00032 | A3 G40S: serine mutant of c-Met domain A3 in the context of ECB15, SEQ ID NO: 213 (protein, c-Met binding FN3 domain) LPAPKNLVVSRVTEDSARLSWTAPDAAFDSFWIRYFEFLSSGEAIVLTVPGSERSYDLTGLKPGTEYVVNIMGVKGGKISPPLSAIFTT |  |  |
| 321000 | 0.000536 | A3 P81S: serine mutant of c-Met domain A3 in the context of ECB15, SEQ ID NO: 217 (protein, c-Met binding FN3 domain) LPAPKNLVVSRVTEDSARLSWTAPDAAFDSFWIRYFEFLGSGEAIVLTVPGSERSYDLTGLKPGTEYVVNIMGVKGGKISSPLSAIFTT |  |  |
| 440000 | 0.00015 | A3 K78S: serine mutant of c-Met domain A3 in the context of ECB15, SEQ ID NO: 212 (protein, c-Met binding FN3 domain) LPAPKNLVVSRVTEDSARLSWTAPDAAFDSFWIRYFEFLGSGEAIVLTVPGSERSYDLTGLKPGTEYVVNIMGVKGGSISPPLSAIFTT |  |  |
| 289000 | 0.0086 | A3 W32S: serine mutant of c-Met domain A3 in the context of ECB15, SEQ ID NO: 219 (protein, c-Met binding FN3 domain) LPAPKNLVVSRVTEDSARLSWTAPDAAFDSFSIRYFEFLGSGEAIVLTVPGSERSYDLTGLKPGTEYVVNIMGVKGGKISPPLSAIFTT |  |  |
| 425000 | 0.00249 | A3 N70S: serine mutant of c-Met domain A3 in the context of ECB15, SEQ ID NO: 216 (protein, c-Met binding FN3 domain) LPAPKNLVVSRVTEDSARLSWTAPDAAFDSFWIRYFEFLGSGEAIVLTVPGSERSYDLTGLKPGTEYVVSIMGVKGGKISPPLSAIFTT |  |  |
| 329000 | 0.0012 | A3 V68S: serine mutant of c-Met domain A3 in the context of ECB15, SEQ ID NO: 215 (protein, c-Met binding FN3 domain) LPAPKNLVVSRVTEDSARLSWTAPDAAFDSFWIRYFEFLGSGEAIVLTVPGSERSYDLTGLKPGTEYSVNIMGVKGGKISPPLSAIFTT |  |  |
| 188000 | 0.00512 | A3 F36S: serine mutant of c-Met domain A3 in the context of ECB15, SEQ ID NO: 218 (protein, c-Met binding FN3 domain) LPAPKNLVVSRVTEDSARLSWTAPDAAFDSFWIRYSEFLGSGEAIVLTVPGSERSYDLTGLKPGTEYVVNIMGVKGGKISPPLSAIFTT |  |  |
